{
  "source": "patent US20220177587A1",
  "about": "“METHODS AND USES OF VARIANT CD80 FUSION PROTEINS AND RELATED CONSTRUCTS” (Alpine Immune Sciences, Inc., priority 2018, published 2022)",
  "molecules": {"B1": {"name": "E35D/L85Q/K93I/E95V/L97Q (protein)", "chain": "VIHVTKEVKEVATLSCGHNVSVEELAQTRIYWQKDKKMVLTMMSGDMNIWPEYKNRTIFDITNNLSIVILALRPSDEGTYECVVQKYEKDAFTRVHQAEVTLSVKAD"}, "B2": {"name": "A26E/E35D/V68M/A71G (protein)", "chain": "B1 chain with A26E, V68M, A71G, Q85L, T93K, V95E, Q97L"}, "B3": {"name": "E35D/D46V/M47V/V68M/K89N (protein)", "chain": "B1 chain with D46V, M47V, V68M, Q85L, K89N, T93K, V95E, Q97L"}, "B4": {"name": "E35D/M47L/V68M/L85Q (protein)", "chain": "B1 chain with M47L, V68M, T93K, V95E, Q97L"}, "B5": {"name": "L85Q (protein)", "chain": "B1 chain with D35E, T93K, V95E, Q97L"}, "B6": {"name": "N48K (protein)", "chain": "B1 chain with D35E, N48K, Q85L, T93K, V95E, Q97L"}, "B7": {"name": "E35D/M47LN68M/A71G/L85Q/D90G (protein, UniProt P33681 35-288, looked up, variant E35D M47L V68M A71G L85Q D90G)", "T-lymphocyte activation …": "VIHVTKEVKEVATLSCGHNVSVEELAQTRIYWQKDKKMVLTMMSGDLNIWPEYKNRTIFDITNNLSIMILGLRPSDEGTYECVVQKYEKGAFKREHLAEVTLSVKADFPTPSISDFEIPTSNIRRIICSTSGGFPEPHLSWLENGEELNAINTTVSQDPETELYAVSSKLDFNMTTNHSFMCLIKYGHLRVNQTFNWNTTKQEHFPDNLLPSWAITLISVNGIFVICCLTYCFAPRCRERRRNERLRRESVRPV"}, "B8": {"name": "H18Y/E35D/M47V/V68M/A71G (protein, UniProt P33681 35-288, looked up, variant H18Y E35D M47V V68M A71G)", "T-lymphocyte activation …": "B7 T-lymphocyte activation … with H18Y, L47V, Q85L, G90D"}, "B9": {"name": "E35D/D46V/M47L/V68M/L85Q/E88D GS(G4S)3 (protein, UniProt P33681 35-288, looked up, variant E35D D46V M47L V68M L85Q E88D)", "T-lymphocyte activation …": "B7 T-lymphocyte activation … with D46V, G71A, E88D, G90D", "modifications": "GS(G4S)3 linker"}, "B10": {"name": "H18V/E35D/M47V/V68M/A71G/D90G (protein, UniProt P33681 35-288, looked up, variant H18V E35D M47V V68M A71G D90G)", "T-lymphocyte activation …": "B7 T-lymphocyte activation … with H18V, L47V, Q85L"}, "B11": {"name": "H18Y/A26P/E35D/M47V/V68M/A71G (protein, UniProt P33681 35-288, looked up, variant H18Y A26P E35D M47V V68M A71G)", "T-lymphocyte activation …": "B7 T-lymphocyte activation … with H18Y, A26P, L47V, Q85L, G90D"}},
  "key": {"CD28 [1]": {"target": "T1, CD28 (Homo sapiens, UniProt P10747)", "assay": "Flow binding to Jurkat/IL2 reporter cells (CD28)", "design": "host or cells: Jurkat cells expressing an IL-2-luciferase reporter", "description": "Binding of selected immunomodulatory fusion proteins to cognate binding partners was assessed. […] Cells were sorted in a Bio-Rad S3 Cell Sorter (Bio-Rad Corp., USA) to >98% purity. Jurkat/IL2 reporter cells, which endogenously express CD28, were used to detect binding to CD28.\nFor staining and analysis by flow cytometry, 100,000 cells of appropriate transfected cells were plated in 96-well round bottom plates. Cells were spun down and resuspended in staining buffer (phosphate buffered saline (PBS), 1% bovine serum albumin (BSA), and 0.1% sodium azide) for 20 minutes to block non-specific binding. […] Primary staining was performed on ice for 45 minutes, before washing cells in staining buffer twice. Phycoerythrin (PE)-conjugated anti-human Fc (Jackson ImmunoResearch, USA) was diluted 1:150, added to cells and incubated another 30 minutes on ice. Cells were then washed twice with 150 μL/well stain buffer, fixed in 2% formaldehyde/PBS, and analyzed on Intellicyt flow cytometer (Intellicyt Corp., USA). PE Mean Fluorescence Intensity (MFI) was calculated for each cell type with FlowJo Version 10 software (FlowJo LLC, USA).\nBinding assays were carried out to assess the specificity and affinity of multivalent proteins to cell-expressed CTLA-4, CD28, and PD-L1 counter structures.\nThe EC50 for binding also was determined."}, "huCTLA4": {"target": "huCTLA4 (Homo sapiens, UniProt P16410)", "sequence (P16410 36-223)": "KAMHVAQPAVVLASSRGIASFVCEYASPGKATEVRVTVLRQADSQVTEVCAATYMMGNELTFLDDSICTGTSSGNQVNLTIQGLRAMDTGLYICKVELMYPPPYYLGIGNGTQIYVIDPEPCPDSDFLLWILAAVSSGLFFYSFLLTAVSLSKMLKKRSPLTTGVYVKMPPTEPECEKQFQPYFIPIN", "assay": "Flow binding to CHO cells stably expressing CTLA4", "design": "huCTLA4 and huPD-L1, full-length mammalian surface expression constructs were generated; expressed in transfected cells; host or cells: CHO cells, lentiviral transduction, sorted to >98% purity", "settings": "for CTLA4 MFI at 33.3 nM: CHO cells stably expressing CTLA4", "method_in_brief": "(§1)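 Fusion proteins bound to CHO cells stably expressing CTLA4 or PD-L1, or to Jurkat/IL2 reporter cells with endogenous CD28, for 45 min on ice after blocking in PBS/1% BSA. Detection with PE anti-human Fc by flow cytometry; PE MFI per cell type and binding EC50 determined.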"}, "huPD-L1": {"target": "huPD-L1 (Homo sapiens, UniProt Q9NZQ7)", "sequence (Q9NZQ7 19-290)": "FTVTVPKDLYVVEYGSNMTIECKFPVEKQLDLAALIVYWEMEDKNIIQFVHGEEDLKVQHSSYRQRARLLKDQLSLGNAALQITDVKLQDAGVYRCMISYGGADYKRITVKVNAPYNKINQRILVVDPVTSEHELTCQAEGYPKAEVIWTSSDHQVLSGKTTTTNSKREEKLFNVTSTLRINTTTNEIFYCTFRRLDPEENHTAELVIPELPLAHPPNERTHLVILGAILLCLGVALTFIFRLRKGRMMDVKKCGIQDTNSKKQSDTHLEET", "assay": "Flow binding to CHO cells stably expressing PD-L1", "design": "huCTLA4 and huPD-L1, full-length mammalian surface expression constructs were generated; expressed in transfected cells; host or cells: CHO cells, lentiviral transduction, sorted to >98% purity", "settings": "for PD-L1 MFI at 33.3 nM: CHO cells stably expressing PD-L1", "method_in_brief": "as §1"}, "CD28 [2]": {"target": "T1, CD28", "assay": "Jurkat/IL2 + CHO/OKT3 +/- PD-L1 reporter assay: PD-L1-dependent CD28 costimulation", "assay_type": "cell-based", "design": "host or cells: Jurkat cells expressing an IL-2-luciferase reporter", "settings": "Jurkat/IL2 + CHO/OKT3/PD-L1", "method_in_brief": "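Jurkat reporter cells (100,000/well) preincubated 15 min at room temperature with test protein, then cocultured 5 h at 37 °C with CHO aAPCs bearing anti-CD3 scFv (OKT3) with or without PD-L1. Luciferase luminescence (RLU) read after lysis-substrate addition.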"}, "[3]": {"settings": "Table E4, MFI ratio to WT CD80 ECD-Fc (R&D) at 33.3 nM"}, "[4]": {"settings": "Table E19, Jurkats (CD28), 33.3 nM"}, "[5]": {"settings": "Table E23, CD80 IgV-Fc (inert) at 33.3 nM, Jurkat (CD28)"}, "[6]": {"settings": "Table E23, CD80 IgV-Fc (inert) at 33.3 nM"}},
  "note": "Changes are numbered by the printed parent chain. Numbers in names are those of the source.",
  "data": [
    {"molecule": "B1", "values": [
      {"measurement": "CD28 MFI at 33.3 nM", "setting": "CD28 [1]; Table E4, 33.3 nM, Jurkat cells (CD28)", "value": 400},
      {"measurement": "CD28 Fold change to WT CD80", "setting": "CD28 [1]; [3]", "value": 0.02},
      {"measurement": "CTLA4 MFI at 33.3 nM", "setting": "huCTLA4; Table E4, 33.3 nM variant CD80 IgV-Fc", "value": 246401},
      {"measurement": "CTLA4 Fold change to WT CD80", "setting": "huCTLA4; [3]", "value": 1.57},
      {"measurement": "PD-L1 MFI at 33.3 nM", "setting": "huPD-L1; Table E4, 33.3 nM", "value": 19880},
      {"measurement": "PD-L1 Fold change to WT CD80", "setting": "huPD-L1; [3]", "value": 1.67},
      {"measurement": "Ratio of PDL1:CD28", "setting": "huPD-L1; Table E4, binding to PD-L1 compared to binding to CD28", "value": 50}
    ]},
    {"molecule": "B2", "values": [
      {"measurement": "CD28 MFI at 33.3 nM", "setting": "CD28 [1]; Table E20, Jurkats (CD28), 33.3 nM", "value": 135},
      {"measurement": "Relative Luciferase Units (RLU), CD80 Conc 5.0 nM", "setting": "CD28 [2]; Table E22, CD80 Conc 5.0 nM", "value": 839, "unit": "RLU"},
      {"measurement": "PD-L1 MFI at 33.3 nM", "setting": "huPD-L1; Table E20, 33.3 nM", "value": 12611}
    ]},
    {"molecule": "B3", "values": [
      {"measurement": "CD28 MFI at 33.3 nM", "setting": "CD28 [1]; [4]", "value": 2119},
      {"measurement": "Relative Luciferase Units (RLU), CD80 Conc 5.0 nM", "setting": "CD28 [2]; Table E21, CD80 Conc 5.0 nM", "value": 817, "unit": "RLU"},
      {"measurement": "PD-L1 MFI at 33.3 nM", "setting": "huPD-L1; Table E19, 33.3 nM", "value": 21603}
    ]},
    {"molecule": "B4", "values": [
      {"measurement": "CD28 MFI at 33.3 nM", "setting": "CD28 [1]; [4]", "value": 159},
      {"measurement": "CTLA4 MFI at 33.3 nM", "setting": "huCTLA4; Table E19, 33.3 nM", "value": 28106},
      {"measurement": "PD-L1 MFI at 33.3 nM", "setting": "huPD-L1; Table E19, 33.3 nM", "value": 15307}
    ]},
    {"molecule": "B5", "values": [
      {"measurement": "CD28 MFI at 33.3 nM", "setting": "CD28 [1]; [4]", "value": 35},
      {"measurement": "CTLA4 MFI at 33.3 nM", "setting": "huCTLA4; Table E19, 33.3 nM", "value": 3002}
    ]},
    {"molecule": "B6", "values": [
      {"measurement": "CD28 MFI at 33.3 nM", "setting": "CD28 [1]; [4]", "value": 60.1},
      {"measurement": "CTLA4 MFI at 33.3 nM", "setting": "huCTLA4; Table E19, 33.3 nM", "value": 4952},
      {"measurement": "PD-L1 MFI at 33.3 nM", "setting": "huPD-L1; Table E19, 33.3 nM", "value": 481}
    ]},
    {"molecule": "B7", "values": [
      {"measurement": "CD28 MFI at 33.3 nM", "setting": "CD28 [1]; Table E14, Jurkats (CD28), 33.3 nM", "value": 1400},
      {"measurement": "CTLA4 MFI at 33.3 nM", "setting": "huCTLA4; Table E14, 33.3 nM", "value": 10332}
    ]},
    {"molecule": "B8", "values": [
      {"measurement": "CD28 MFI at 33.3 nM", "setting": "CD28 [1]; [5]", "value": 3227},
      {"measurement": "Relative Luciferase Units (RLU), CD80 Conc 5.0 nM", "setting": "CD28 [2]; Table E24, 5.0 nM", "value": 963, "unit": "RLU"},
      {"measurement": "PD-L1 MFI at 33.3 nM", "setting": "huPD-L1; [6]", "value": 64919}
    ]},
    {"molecule": "B9", "values": [
      {"measurement": "CD28 MFI at 33.3 nM", "setting": "CD28 [1]; Table E25, linker variants, 33.3 nM, Jurkats (CD28)", "value": 267},
      {"measurement": "Relative Luciferase Units (RLU), CD80 Conc 5.0 nM", "setting": "CD28 [2]; Table E26, linker variants, 5.0 nM", "value": 1592, "unit": "RLU"},
      {"measurement": "PD-L1 MFI at 33.3 nM", "setting": "huPD-L1; Table E25, linker variants, 33.3 nM", "value": 22596}
    ]},
    {"molecule": "B10", "values": [
      {"measurement": "CD28 MFI at 33.3 nM", "setting": "CD28 [1]; [5]", "value": 2115},
      {"measurement": "Relative Luciferase Units (RLU), CD80 Conc 5.0 nM", "setting": "CD28 [2]; Table E24, 5.0 nM", "value": 854, "unit": "RLU"},
      {"measurement": "PD-L1 MFI at 33.3 nM", "setting": "huPD-L1; [6]", "value": 43588}
    ]},
    {"molecule": "B11", "values": [
      {"measurement": "CD28 MFI at 33.3 nM", "setting": "CD28 [1]; [5]", "value": 6911},
      {"measurement": "Relative Luciferase Units (RLU), CD80 Conc 5.0 nM", "setting": "CD28 [2]; Table E24, 5.0 nM", "value": 821, "unit": "RLU"},
      {"measurement": "PD-L1 MFI at 33.3 nM", "setting": "huPD-L1; [6]", "value": 51521}
    ]}
  ]
}
